This passage reports activity results from US7291768.

Data set [1] concerns the target T1, GAD-OsMYBS1 (Oryza sativa) (UniProt B8A9B2).
T1 sequence: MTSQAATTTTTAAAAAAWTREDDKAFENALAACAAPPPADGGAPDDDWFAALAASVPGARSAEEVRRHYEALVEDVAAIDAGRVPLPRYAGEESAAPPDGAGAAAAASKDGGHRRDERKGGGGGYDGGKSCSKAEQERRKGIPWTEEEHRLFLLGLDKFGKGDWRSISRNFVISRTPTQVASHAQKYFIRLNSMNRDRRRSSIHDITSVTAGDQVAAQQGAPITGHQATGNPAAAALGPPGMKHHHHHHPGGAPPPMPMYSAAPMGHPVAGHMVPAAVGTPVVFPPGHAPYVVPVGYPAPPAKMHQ
Briefly: one_hybrid. The conditions noted are these: LacZ increase vs no OsMYBS.

Data set [2] deals with GAD-OsMYBS2 (Oryza sativa) (UniProt B8BI93). Briefly: one_hybrid. The conditions noted are these: LacZ increase vs no OsMYBS.
GAD-OsMYBS2 (Oryza sativa), sequence (B8BI93 other isoform, or with tags, fused parts or gaps): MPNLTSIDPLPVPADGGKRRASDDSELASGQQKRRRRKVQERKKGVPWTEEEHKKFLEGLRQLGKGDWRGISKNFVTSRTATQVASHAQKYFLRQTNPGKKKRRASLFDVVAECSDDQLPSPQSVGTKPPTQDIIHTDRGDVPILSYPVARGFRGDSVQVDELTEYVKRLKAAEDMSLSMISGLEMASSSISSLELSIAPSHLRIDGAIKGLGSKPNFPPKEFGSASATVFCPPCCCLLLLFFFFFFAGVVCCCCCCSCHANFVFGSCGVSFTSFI

With “8x(TATCCA+F), eight repeats of -133 to -82 of alphaAmy3”, the activity in data set [1] amounted to 3 fold; in data set [2], 5 fold.
